Assay results: patent US20250277030A1 (Zymeworks, published 2025)

How the values were obtained:
[1] = target: T1, human sodium-dependent phosphate transporter 2B (NaPi2b) (human, UniProt O95436 1-690); assay: flow cytometry on HCC-78 cells (endogenous NaPi2b), 4 C, anti-human IgG Fc AF647 detection
T1 construct: UniProt ID is given as 095436 [sic]; also called hNaPi2b; Hu NaPi2b
T1 sequence: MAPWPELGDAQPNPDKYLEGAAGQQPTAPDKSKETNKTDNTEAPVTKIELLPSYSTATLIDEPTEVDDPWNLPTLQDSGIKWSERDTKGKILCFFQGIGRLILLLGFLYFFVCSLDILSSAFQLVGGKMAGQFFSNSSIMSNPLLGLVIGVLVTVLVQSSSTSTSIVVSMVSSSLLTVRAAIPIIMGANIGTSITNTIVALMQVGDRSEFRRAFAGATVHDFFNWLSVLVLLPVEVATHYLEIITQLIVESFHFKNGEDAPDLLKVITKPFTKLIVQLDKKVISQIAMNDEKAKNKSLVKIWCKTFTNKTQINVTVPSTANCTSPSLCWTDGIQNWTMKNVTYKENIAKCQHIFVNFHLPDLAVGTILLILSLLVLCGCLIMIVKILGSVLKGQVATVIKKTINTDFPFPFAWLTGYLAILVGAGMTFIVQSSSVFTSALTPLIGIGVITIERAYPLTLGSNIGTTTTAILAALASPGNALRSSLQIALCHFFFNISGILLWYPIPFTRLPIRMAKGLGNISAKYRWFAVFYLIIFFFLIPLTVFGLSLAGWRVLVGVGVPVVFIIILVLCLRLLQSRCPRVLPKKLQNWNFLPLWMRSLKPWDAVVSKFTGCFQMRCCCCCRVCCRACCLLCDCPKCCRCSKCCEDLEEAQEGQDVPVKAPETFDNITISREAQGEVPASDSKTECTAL
Experimental: (§1) Briefly, HEK293-6e cells were transfected for ˜24 hours to transiently express human NaPi2b, cynomolgus or mouse NaPi2b, at 1 μg of DNA per 1 million cells. Following transfection, 50,000 cells per well were seeded in V-bottom 96-well plates and incubated with 200 nM of primary antibody for 18-24 hours at 4° C. to prevent internalization. Post-incubation, cells were washed and stained with anti-Human IgG Fc AF647 conjugate (Jackson Immuno Research Labs, West Grove, PA, Cat. No. 109-605-098, Lot. No. 124868) at 4° C. for 1 hour. Following staining and washing, fluorescence was detected by flow cytometry on BD LSRFortessa™ Cell Analyzer (BD Biosciences, Franklin Lake, NJ) with 10,000 minimum events collected per well. The AF647/APC-A GeoMean (fluorescence signal geometric mean, proportional to anti-Human AF647 binding) was calculated for the live singlet cell population for each primary antibody using FlowJo™ v8 software (BD Biosciences, Franklin Lake, NJ). The Bmax and Kd of each primary antibody were calculated using GraphPad Prism Version 9 (GraphPad Software, San Diego, CA)
(§2) The ability of ADCs to bind to cells expressing NaPi2b was assessed. […] Binding to endogenous high NaPi2b-expressing cell lines IGROV-1 and HCC-78 was assessed by flow cytometry according to methods described in Example 5.

[2] = target: T1, human sodium-dependent phosphate …; assay: flow cytometry, HCC-78 cells (endogenous NaPi2b)
Experimental: as §1, §2

[3] = target: T1, human sodium-dependent phosphate …; assay: flow cytometry on TOV-21G cells (endogenous NaPi2b), 24 h at 4 C, anti-human IgG Fc AF647 detection
Experimental: Briefly, cells were seeded at 50,000 cells/well in conical-bottom 96-well plates and treated with test antibody for 24 hours at 4° C. to prevent internalization. […] Following incubation, cells were washed and stained with anti-Human IgG Fc AF647 conjugate (Jackson Immuno Research Labs, West Grove, PA; Cat. No. 109-605-098) at 4° C. for 30 min. Following incubation and washing, fluorescence was detected by flow cytometry on a BD LSRFortessa™ Cell Analyzer (BD Biosciences, Franklin Lake, NJ) with 1,000 minimum events collected per well. The AF647/APC-A GeoMean (fluorescence signal geometric mean, proportional to anti-Human AF647 binding) was calculated for the live cell population using FlowJo™ Version 10.8.1 (BD Biosciences, Franklin Lake, NJ) and plotted for each test antibody using GraphPad Prism Version 9 (GraphPad Software, San Diego, CA).
The ability of the humanized antibody variants v38591 and v29456 to bind to NaPi2b expressed on cells was assessed on endogenous NaPi2b-expressing tumor cell lines IGROV-1 (ovarian adenocarcinoma) and TOV-21G (ovarian carcinoma) by flow cytometry.
Cellular binding was performed according to methods described in Example 13.

[4] = target: T1, human sodium-dependent phosphate …; assay: flow cytometry, HEK293-6e cells transfected with human NaPi2b
Experimental: (§3) The binding cross-reactivity of humanized antibody variant v29456 to human, cynomolgus and mouse NaPi2b was assessed by flow cytometry using HEK293-6e transfected cells.
as §1

[5] = target: T1, human sodium-dependent phosphate …; assay: flow cytometry, HEK293-6e cells transfected with human NaPi2b; apparent Kd
Experimental: as §3, §1

B1: v29456 humanized anti-NaPi2b antibody (H1L2) (antibody, human IgG1, kappa)
heavy: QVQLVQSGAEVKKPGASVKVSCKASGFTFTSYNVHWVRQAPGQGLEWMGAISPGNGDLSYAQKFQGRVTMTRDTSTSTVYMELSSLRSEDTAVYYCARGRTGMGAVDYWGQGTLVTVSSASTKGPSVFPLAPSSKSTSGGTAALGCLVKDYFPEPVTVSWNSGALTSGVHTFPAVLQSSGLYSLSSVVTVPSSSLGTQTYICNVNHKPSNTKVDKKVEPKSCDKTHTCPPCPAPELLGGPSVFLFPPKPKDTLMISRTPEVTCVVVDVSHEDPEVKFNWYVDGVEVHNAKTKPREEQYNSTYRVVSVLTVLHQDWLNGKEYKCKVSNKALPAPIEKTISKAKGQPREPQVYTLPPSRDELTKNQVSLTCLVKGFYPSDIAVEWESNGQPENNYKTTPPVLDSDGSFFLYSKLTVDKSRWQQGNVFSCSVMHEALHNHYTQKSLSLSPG
light: DVQMTQSPSSLSASVGDRVTITCRASQDVYSYLNWYQQKPGKAVKLLIYYTSRLQSGVPSRFSGSGSGTDYTLTISSLQPEDFATYYCQQYNIFPWTFGQGTKLEIKRTVAAPSVFIFPPSDEQLKSGTASVVCLLNNFYPREAKVQWKVDNALQSGNSQESVTEQDSKDSTYSLSSTLTLSKADYEKHKVYACEVTHQGLSSPVTKSFNRGEC
[1]
  EC50 (read off the curve): ~2 nM
[2]
  Bmax: 21800
[3]
  EC50 (read off the curve): ~0.7 nM
[4]
  Bmax (APC-A GeoMean): 2540 APC-A GeoMean
[5]
  Kd: 5.2 nM
